Data taken from patent publication US20260209293A1 (Novo Nordisk, published 2026).
Blank lines part the entries; values can stand above or below the binder they belong to. *1 amine or outer side, *2 acyl side, *3 side chain or, on linkers, in order; H or OH if unused. The star is where a group is joined. C18 diacid = O=C(O)CCCCCCCCCCCCCCCCC(=O)*; γGlu = O=C(O)[C@H](CCC(=O)[*:2])N[*:1]

Tests used:
[1] = target: T1, human amylin-3(a) receptor (human, UniProt P30988 25-474; O60896 24-148); assay: cell-based or functional assay
T1 sequence (looked up) 1: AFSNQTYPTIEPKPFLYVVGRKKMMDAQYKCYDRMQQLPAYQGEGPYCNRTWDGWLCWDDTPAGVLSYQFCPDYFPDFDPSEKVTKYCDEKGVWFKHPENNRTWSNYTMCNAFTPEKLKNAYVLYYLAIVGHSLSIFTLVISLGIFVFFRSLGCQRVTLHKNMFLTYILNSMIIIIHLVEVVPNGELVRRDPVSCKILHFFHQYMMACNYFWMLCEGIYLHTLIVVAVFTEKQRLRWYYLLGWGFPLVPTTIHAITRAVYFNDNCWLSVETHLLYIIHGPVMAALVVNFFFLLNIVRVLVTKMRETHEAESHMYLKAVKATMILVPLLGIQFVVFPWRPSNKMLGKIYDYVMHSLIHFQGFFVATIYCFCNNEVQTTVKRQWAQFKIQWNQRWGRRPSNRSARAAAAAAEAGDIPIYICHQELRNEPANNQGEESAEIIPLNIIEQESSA
T1 sequence (looked up) 2: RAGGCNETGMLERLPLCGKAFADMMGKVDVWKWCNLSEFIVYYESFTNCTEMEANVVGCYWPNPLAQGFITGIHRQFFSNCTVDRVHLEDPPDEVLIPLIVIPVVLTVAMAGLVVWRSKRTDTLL

[2] = target: T2, human calcitonin receptor (a) (human, UniProt P30988 25-474); assay: cell-based or functional assay
T2 sequence (looked up): T1 sequence (looked up) 1

hAmyR3 potency, EC50 (pM); CRE-luciferase reporter in BHK cells [1]: 1.06 pM
hCalcR potency, EC50 (pM); CRE-luciferase reporter in BHK cells [2]: 1.76 pM
B1: N^1-[(4S)-4-carboxy-4-(17-carboxyheptadecanoylamino)butanoyl]-[Ala1,Ser2,His3,Leu4,Ser5,Ala7,Gln8,Ala10,Glu14,His17,Pro25,Pro28,Pro29,Asp31,Glu35,Pro37],des-(19 … (peptide)
peptide: {C18 diacid-γGlu}-ASHLSTAQTARLAEFLHHFGPILPPTDVGSETP-NH2
SMILES: CC[C@H](C)[C@H](NC(=O)[C@@H]1CCCN1C(=O)CNC(=O)[C@H](Cc1ccccc1)NC(=O)[C@H](Cc1c[nH]cn1)NC(=O)[C@H](Cc1c[nH]cn1)NC(=O)[C@H](CC(C)C)NC(=O)[C@H](Cc1ccccc1)NC(=O)[C@H](CCC(=O)O)NC(=O)[C@H](C)NC(=O)[C@H](CC(C)C)NC(=O)[C@H](CCCNC(=N)N)NC(=O)[C@H](C)NC(=O)[C@@H](NC(=O)[C@H](CCC(N)=O)NC(=O)[C@H](C)NC(=O)[C@@H](NC(=O)[C@H](CO)NC(=O)[C@H](CC(C)C)NC(=O)[C@H](Cc1c[nH]cn1)NC(=O)[C@H](CO)NC(=O)[C@H](C)NC(=O)CC[C@H](NC(=O)CCCCCCCCCCCCCCCCC(=O)O)C(=O)O)[C@@H](C)O)[C@@H](C)O)C(=O)N[C@@H](CC(C)C)C(=O)N1CCC[C@H]1C(=O)N1CCC[C@H]1C(=O)N[C@H](C(=O)N[C@@H](CC(=O)O)C(=O)N[C@H](C(=O)NCC(=O)N[C@@H](CO)C(=O)N[C@@H](CCC(=O)O)C(=O)N[C@H](C(=O)N1CCC[C@H]1C(N)=O)[C@@H](C)O)C(C)C)[C@@H](C)O

hAmyR3 potency, EC50 (pM); CRE-luciferase reporter in BHK cells [1]: 2.11 pM
hCalcR potency, EC50 (pM); CRE-luciferase reporter in BHK cells [2]: 2.78 pM
B2: N^1-[(4S)-4-carboxy-4-(17-carboxyheptadecanoylamino)butanoyl]-[Ala1,Ser2,His3,Leu4,Ser5,Ala7,Gln8,Ala10,Glu14, His17, Pro25, Pro28, … (peptide)
peptide: {C18 diacid-γGlu}-ASHLSTAQTARLAEFLHHFGPILPPTDVGSETY-NH2
SMILES: CC[C@H](C)[C@H](NC(=O)[C@@H]1CCCN1C(=O)CNC(=O)[C@H](Cc1ccccc1)NC(=O)[C@H](Cc1c[nH]cn1)NC(=O)[C@H](Cc1c[nH]cn1)NC(=O)[C@H](CC(C)C)NC(=O)[C@H](Cc1ccccc1)NC(=O)[C@H](CCC(=O)O)NC(=O)[C@H](C)NC(=O)[C@H](CC(C)C)NC(=O)[C@H](CCCNC(=N)N)NC(=O)[C@H](C)NC(=O)[C@@H](NC(=O)[C@H](CCC(N)=O)NC(=O)[C@H](C)NC(=O)[C@@H](NC(=O)[C@H](CO)NC(=O)[C@H](CC(C)C)NC(=O)[C@H](Cc1c[nH]cn1)NC(=O)[C@H](CO)NC(=O)[C@H](C)NC(=O)CC[C@H](NC(=O)CCCCCCCCCCCCCCCCC(=O)O)C(=O)O)[C@@H](C)O)[C@@H](C)O)C(=O)N[C@@H](CC(C)C)C(=O)N1CCC[C@H]1C(=O)N1CCC[C@H]1C(=O)N[C@H](C(=O)N[C@@H](CC(=O)O)C(=O)N[C@H](C(=O)NCC(=O)N[C@@H](CO)C(=O)N[C@@H](CCC(=O)O)C(=O)N[C@H](C(=O)N[C@@H](Cc1ccc(O)cc1)C(N)=O)[C@@H](C)O)C(C)C)[C@@H](C)O
